Test results taken from US20160153985A1.

Legend:
[1] = molecular target: pure human iC3b (Complement Technology, A115) (human) (UniProt P01024); experiment: sandwich ELISA, capture A209 (Example 5), goat anti-C3-HRP; TABLE 6 well A3, blocker
[2] = molecular target: pure human iC3b (Complement Technology, A115) (human) (UniProt P01024); experiment: sandwich ELISA, capture A209 (Example 5), goat anti-C3-HRP; TABLE 6 well A5, blocker
[3] = molecular target: pure human iC3b (Complement Technology, A115) (human) (UniProt P01024); experiment: sandwich ELISA, capture A209 (Example 5), goat anti-C3-HRP; TABLE 6 well A8, blocker
[4] = molecular target: pure human iC3b (Complement Technology, A115) (human) (UniProt P01024); experiment: sandwich ELISA, capture A209 (Example 5), goat anti-C3-HRP; TABLE 6 well A9, blocker
[5] = molecular target: pure human iC3b (Complement Technology, A115) (human) (UniProt P01024); experiment: sandwich ELISA, capture A209 (Example 5), goat anti-C3-HRP; TABLE 6 well B2, blocker
[6] = molecular target: pure human iC3b (Complement Technology, A115) (human) (UniProt P01024); experiment: sandwich ELISA, capture A209 (Example 5), goat anti-C3-HRP; TABLE 6 well B5, blocker
[7] = molecular target: pure human iC3b (Complement Technology, A115) (human) (UniProt P01024); experiment: sandwich ELISA, capture A209 (Example 5), goat anti-C3-HRP; TABLE 6 well B8, blocker
[8] = molecular target: pure human iC3b (Complement Technology, A115) (human) (UniProt P01024); experiment: sandwich ELISA, capture A209 (Example 5), goat anti-C3-HRP; TABLE 7, iC3b in blocker
[9] = molecular target: pure human iC3b (Complement Technology, A115) (human) (UniProt P01024); experiment: sandwich ELISA, capture A209 (Example 5), goat anti-C3-HRP; TABLE 6 well C3, 30% vitreous
[10] = molecular target: pure human iC3b (Complement Technology, A115) (human) (UniProt P01024); experiment: sandwich ELISA, capture A209 (Example 5), goat anti-C3-HRP; TABLE 6 well C6, 30% vitreous
[11] = molecular target: pure human iC3b (Complement Technology, A115) (human) (UniProt P01024); experiment: sandwich ELISA, capture A209 (Example 5), goat anti-C3-HRP; TABLE 6 well C7, 30% vitreous
[12] = molecular target: pure human iC3b (Complement Technology, A115) (human) (UniProt P01024); experiment: sandwich ELISA, capture A209 (Example 5), goat anti-C3-HRP; TABLE 6 well D2, 30% vitreous
[13] = molecular target: pure human iC3b (Complement Technology, A115) (human) (UniProt P01024); experiment: sandwich ELISA, capture A209 (Example 5), goat anti-C3-HRP; TABLE 6 well D5, 30% vitreous
[14] = molecular target: pure human iC3b (Complement Technology, A115) (human) (UniProt P01024); experiment: sandwich ELISA, capture A209 (Example 5), goat anti-C3-HRP; TABLE 6 well D6, 30% vitreous
[15] = molecular target: pure human iC3b (Complement Technology, A115) (human) (UniProt P01024); experiment: sandwich ELISA, capture A209 (Example 5), goat anti-C3-HRP; TABLE 6 well D7, 30% vitreous
[16] = molecular target: pure human iC3b (Complement Technology, A115) (human) (UniProt P01024); experiment: sandwich ELISA, capture A209 (Example 5), goat anti-C3-HRP; TABLE 6 well D9, 30% vitreous
[17] = molecular target: pure human iC3b (Complement Technology, A115) (human) (UniProt P01024); experiment: sandwich ELISA, capture A209 (Example 5), goat anti-C3-HRP; TABLE 6 well E6, 20% vitreous
[18] = molecular target: pure human iC3b (Complement Technology, A115) (human) (UniProt P01024); experiment: sandwich ELISA, capture A209 (Example 5), goat anti-C3-HRP; TABLE 6 well F3, 20% vitreous
[19] = molecular target: pure human iC3b (Complement Technology, A115) (human) (UniProt P01024); experiment: sandwich ELISA, capture A209 (Example 5), goat anti-C3-HRP; TABLE 6 well F6, 20% vitreous
[20] = molecular target: pure human iC3b (Complement Technology, A115) (human) (UniProt P01024); experiment: sandwich ELISA, capture A209 (Example 5), goat anti-C3-HRP; TABLE 6 well F8, 20% vitreous
[21] = molecular target: pure human iC3b (Complement Technology, A115) (human) (UniProt P01024); experiment: sandwich ELISA, capture A209 (Example 5), goat anti-C3-HRP; TABLE 6 well G3, 10% vitreous
[22] = molecular target: pure human iC3b (Complement Technology, A115) (human) (UniProt P01024); experiment: sandwich ELISA, capture A209 (Example 5), goat anti-C3-HRP; TABLE 6 well G5, 10% vitreous
[23] = molecular target: pure human iC3b (Complement Technology, A115) (human) (UniProt P01024); experiment: sandwich ELISA, capture A209 (Example 5), goat anti-C3-HRP; TABLE 6 well G6, 10% vitreous
[24] = molecular target: pure human iC3b (Complement Technology, A115) (human) (UniProt P01024); experiment: sandwich ELISA, capture A209 (Example 5), goat anti-C3-HRP; TABLE 6 well H7, 10% vitreous
[25] = molecular target: pure human iC3b (Complement Technology, A115) (human) (UniProt P01024); experiment: sandwich ELISA of Example 5, iC3b concentration labeled 0.0125 in 20% human vitreous, duplicate 1

Chain of UniProt P01024 (P01024 23-667 limits assumed, chain 1 of 3): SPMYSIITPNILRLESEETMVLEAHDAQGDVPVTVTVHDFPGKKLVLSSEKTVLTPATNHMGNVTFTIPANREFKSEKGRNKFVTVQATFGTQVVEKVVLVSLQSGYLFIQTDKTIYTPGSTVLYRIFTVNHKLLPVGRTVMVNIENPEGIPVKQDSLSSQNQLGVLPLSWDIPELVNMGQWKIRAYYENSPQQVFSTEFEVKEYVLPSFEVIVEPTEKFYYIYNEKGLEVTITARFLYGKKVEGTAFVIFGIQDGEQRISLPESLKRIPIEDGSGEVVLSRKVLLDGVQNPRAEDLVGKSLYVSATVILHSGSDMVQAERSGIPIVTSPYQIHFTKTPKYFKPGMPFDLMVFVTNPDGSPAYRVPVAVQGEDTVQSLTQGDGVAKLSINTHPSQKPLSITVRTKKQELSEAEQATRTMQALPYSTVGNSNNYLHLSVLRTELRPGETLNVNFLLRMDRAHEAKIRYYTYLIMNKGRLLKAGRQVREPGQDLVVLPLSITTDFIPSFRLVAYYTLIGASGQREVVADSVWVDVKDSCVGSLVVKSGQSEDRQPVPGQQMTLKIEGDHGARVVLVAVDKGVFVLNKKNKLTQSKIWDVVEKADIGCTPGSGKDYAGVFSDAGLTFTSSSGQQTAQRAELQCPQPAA
Chain of UniProt P01024 (P01024 749-1303 limits assumed, chain 2 of 3): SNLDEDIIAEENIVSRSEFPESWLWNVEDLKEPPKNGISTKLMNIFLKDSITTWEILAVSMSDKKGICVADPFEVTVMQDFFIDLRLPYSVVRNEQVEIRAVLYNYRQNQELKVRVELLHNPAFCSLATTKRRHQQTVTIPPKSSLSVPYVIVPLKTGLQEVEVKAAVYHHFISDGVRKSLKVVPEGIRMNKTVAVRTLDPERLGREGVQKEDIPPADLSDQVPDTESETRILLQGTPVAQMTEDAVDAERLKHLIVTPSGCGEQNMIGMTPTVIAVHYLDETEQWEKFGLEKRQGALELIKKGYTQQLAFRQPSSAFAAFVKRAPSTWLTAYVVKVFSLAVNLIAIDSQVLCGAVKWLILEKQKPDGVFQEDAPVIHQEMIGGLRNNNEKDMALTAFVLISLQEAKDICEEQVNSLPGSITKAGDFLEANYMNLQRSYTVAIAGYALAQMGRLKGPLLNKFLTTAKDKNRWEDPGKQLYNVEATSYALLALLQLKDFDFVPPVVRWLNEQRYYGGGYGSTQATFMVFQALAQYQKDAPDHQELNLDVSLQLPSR
Chain of UniProt P01024 (P01024 1321-1663 limits assumed, chain 3 of 3): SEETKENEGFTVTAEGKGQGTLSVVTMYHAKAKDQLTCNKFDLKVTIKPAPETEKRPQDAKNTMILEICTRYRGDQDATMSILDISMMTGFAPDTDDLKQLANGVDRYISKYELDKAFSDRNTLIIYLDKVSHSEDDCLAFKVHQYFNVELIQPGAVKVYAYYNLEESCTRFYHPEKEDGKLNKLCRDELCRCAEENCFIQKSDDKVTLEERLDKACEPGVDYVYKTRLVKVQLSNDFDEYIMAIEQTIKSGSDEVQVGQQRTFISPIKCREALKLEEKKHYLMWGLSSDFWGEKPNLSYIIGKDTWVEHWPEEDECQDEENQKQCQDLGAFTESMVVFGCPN

mouse anti-iC3b antibody A209 (Quidel) was tested, and the raw A450 at iC3b 0.5 ug/ml [1] was 0.258 OD, the raw A450 at iC3b 0.125 ug/ml [2] was 0.106 OD and the raw A450 at iC3b 0.016 ug/ml [3] was 0.043 OD. It also gave a raw A450 at iC3b 0.0078 ug/ml [4] of 0.035 OD, a raw A450 at iC3b 1 ug/ml [5] of 0.344 OD and a raw A450 at iC3b 0.125 ug/ml [6] of 0.1 OD. It also gave a raw A450 at iC3b 0.016 ug/ml [7] of 0.038 OD, an A450 minus matrix average at iC3b 0.016 ug/ml [8] of 0.011 OD and an A450 minus matrix average at iC3b 0.031 ug/ml [8] of 0.021 OD. The A450 minus matrix average at iC3b 0.063 ug/ml [8] was 0.037 OD, the A450 minus matrix average at iC3b 0.125 ug/ml [8] was 0.073 OD and the A450 minus matrix average at iC3b 0.25 ug/ml [8] was 0.138 OD. The A450 minus matrix average at iC3b 0.5 ug/ml [8] was 0.232 OD, the A450 minus matrix average at iC3b 1 ug/ml [8] was 0.328 OD and the raw A450 at iC3b 0.5 ug/ml [9] was 0.406 OD. The raw A450 at iC3b 0.063 ug/ml [10] was 0.375 OD, the raw A450 at iC3b 0.031 ug/ml [11] was 0.355 OD and the raw A450 at iC3b 1 ug/ml [12] was 0.453 OD. The raw A450 at iC3b 0.125 ug/ml [13] was 0.391 OD, the raw A450 at iC3b 0.063 ug/ml [14] was 0.362 OD and the raw A450 at iC3b 0.031 ug/ml [15] was 0.356 OD. It also gave a raw A450 at iC3b 0.0078 ug/ml [16] of 0.362 OD, a raw A450 at iC3b 0.063 ug/ml [17] of 0.353 OD and a raw A450 at iC3b 0.5 ug/ml [18] of 0.45 OD. The raw A450 at iC3b 0.063 ug/ml [19] was 0.355 OD, the raw A450 at iC3b 0.016 ug/ml [20] was 0.318 OD and the raw A450 at iC3b 0.5 ug/ml [21] was 0.385 OD. The raw A450 at iC3b 0.125 ug/ml [22] was 0.274 OD, the raw A450 at iC3b 0.063 ug/ml [23] was 0.254 OD and the raw A450 at iC3b 0.031 ug/ml [24] was 0.231 OD. The absorbance A450, raw [25] was 0.361 A450.
